The record followed here is publication PMC3796444 (PLoS ONE, 2013).

First the molecules themselves.
B1: alanine:glyoxylate aminotransferase p.I340M, recombinant His-tagged (enzyme, human)
chain: MASHKLLVTPPKALLKPLSIPNQLLLGPGPSNLPPRIMAAGGLQMIGSMSKDMYQIMDEIKEGIQYVFQTRNPLTLVISGSGHCALEAALVNVLEPGDSFLVGANGIWGQRAVDIGERIGARVHPMTKDPGGHYTLQEVEEGLAQHKPVLLFLTHGESSTGVLQPLDGFGELCHRYKCLLLVDSVASLGGTPLYMDRQGIDILYSGSQKALNAPPGTSLISFSDKAKKKMYSRKTKPFSFYLDIKWLANFWGCDDQPRMYHHTIPVISLYSLRESLALIAEQGLENSWRQHREAAAYLHGRLQALGLQLFVKDPALRLPTVTTVAVPAGYDWRDIVSYVMDHFDIEIMGGLGPSTGKVLRIGLLGCNATRENVDRVTEALRAAL
notes: alanine:glyoxylate aminotransferase (AGT), human, polymorphic variant p.I340M; Crystallised here (PDB 2YOB); source: E. coli BL21 (pCOLDII), purified (IMAC, SEC)
B2: alanine:glyoxylate aminotransferase p.P11L, recombinant His-tagged (enzyme, human, UniProt P21549 1-392, looked up)
chain: MASHKLLVTPLKALLKPLSIPNQLLLGPGPSNLPPRIMAAGGLQMIGSMSKDMYQIMDEIKEGIQYVFQTRNPLTLVISGSGHCALEAALVNVLEPGDSFLVGANGIWGQRAVDIGERIGARVHPMTKDPGGHYTLQEVEEGLAQHKPVLLFLTHGESSTGVLQPLDGFGELCHRYKCLLLVDSVASLGGTPLYMDRQGIDILYSGSQKALNAPPGTSLISFSDKAKKKMYSRKTKPFSFYLDIKWLANFWGCDDQPRMYHHTIPVISLYSLRESLALIAEQGLENSWRQHREAAAYLHGRLQALGLQLFVKDPALRLPTVTTVAVPAGYDWRDIVSYVIDHFDIEIMGGLGPSTGKVLRIGLLGCNATRENVDRVTEALRAALQHCPKKKL
notes: alanine:glyoxylate aminotransferase (AGT), human, polymorphic variant p.P11L; source: E. coli BL21 (pCOLDII), purified (IMAC, SEC)
B3: alanine:glyoxylate aminotransferase p.A295T on the minor allele, recombinant His-tagged (enzyme, human, UniProt P21549 1-392, looked up)
chain: MASHKLLVTPLKALLKPLSIPNQLLLGPGPSNLPPRIMAAGGLQMIGSMSKDMYQIMDEIKEGIQYVFQTRNPLTLVISGSGHCALEAALVNVLEPGDSFLVGANGIWGQRAVDIGERIGARVHPMTKDPGGHYTLQEVEEGLAQHKPVLLFLTHGESSTGVLQPLDGFGELCHRYKCLLLVDSVASLGGTPLYMDRQGIDILYSGSQKALNAPPGTSLISFSDKAKKKMYSRKTKPFSFYLDIKWLANFWGCDDQPRMYHHTIPVISLYSLRESLALIAEQGLENSWRQHREATAYLHGRLQALGLQLFVKDPALRLPTVTTVAVPAGYDWRDIVSYVMDHFDIEIMGGLGPSTGKVLRIGLLGCNATRENVDRVTEALRAALQHCPKKKL
notes: alanine:glyoxylate aminotransferase (AGT), human, rare variant p.A295T in the minor allele; source: E. coli BL21 (pCOLDII), purified (IMAC, SEC)
B4: alanine:glyoxylate aminotransferase p.F152I on the minor allele, recombinant His-tagged (enzyme, human, UniProt P21549 1-392, looked up)
chain: MASHKLLVTPLKALLKPLSIPNQLLLGPGPSNLPPRIMAAGGLQMIGSMSKDMYQIMDEIKEGIQYVFQTRNPLTLVISGSGHCALEAALVNVLEPGDSFLVGANGIWGQRAVDIGERIGARVHPMTKDPGGHYTLQEVEEGLAQHKPVLLILTHGESSTGVLQPLDGFGELCHRYKCLLLVDSVASLGGTPLYMDRQGIDILYSGSQKALNAPPGTSLISFSDKAKKKMYSRKTKPFSFYLDIKWLANFWGCDDQPRMYHHTIPVISLYSLRESLALIAEQGLENSWRQHREAAAYLHGRLQALGLQLFVKDPALRLPTVTTVAVPAGYDWRDIVSYVMDHFDIEIMGGLGPSTGKVLRIGLLGCNATRENVDRVTEALRAALQHCPKKKL
notes: alanine:glyoxylate aminotransferase (AGT), human, PH1 mutation p.F152I in the minor allele; source: E. coli BL21 (pCOLDII), purified (IMAC, SEC)
B5: alanine:glyoxylate aminotransferase p.I244T on the minor allele, recombinant His-tagged (enzyme, human, UniProt P21549 1-392, looked up)
chain: MASHKLLVTPLKALLKPLSIPNQLLLGPGPSNLPPRIMAAGGLQMIGSMSKDMYQIMDEIKEGIQYVFQTRNPLTLVISGSGHCALEAALVNVLEPGDSFLVGANGIWGQRAVDIGERIGARVHPMTKDPGGHYTLQEVEEGLAQHKPVLLFLTHGESSTGVLQPLDGFGELCHRYKCLLLVDSVASLGGTPLYMDRQGIDILYSGSQKALNAPPGTSLISFSDKAKKKMYSRKTKPFSFYLDTKWLANFWGCDDQPRMYHHTIPVISLYSLRESLALIAEQGLENSWRQHREAAAYLHGRLQALGLQLFVKDPALRLPTVTTVAVPAGYDWRDIVSYVMDHFDIEIMGGLGPSTGKVLRIGLLGCNATRENVDRVTEALRAALQHCPKKKL
notes: alanine:glyoxylate aminotransferase (AGT), human, PH1 mutation p.I244T in the minor allele (p.P11L, p.I244T and p.I340M in cis); source: E. coli BL21 (pCOLDII), purified (IMAC, SEC)
B6: alanine:glyoxylate aminotransferase p.G170R on the minor allele, recombinant His-tagged (enzyme, human, UniProt P21549 1-392, looked up)
chain: MASHKLLVTPLKALLKPLSIPNQLLLGPGPSNLPPRIMAAGGLQMIGSMSKDMYQIMDEIKEGIQYVFQTRNPLTLVISGSGHCALEAALVNVLEPGDSFLVGANGIWGQRAVDIGERIGARVHPMTKDPGGHYTLQEVEEGLAQHKPVLLFLTHGESSTGVLQPLDGFRELCHRYKCLLLVDSVASLGGTPLYMDRQGIDILYSGSQKALNAPPGTSLISFSDKAKKKMYSRKTKPFSFYLDIKWLANFWGCDDQPRMYHHTIPVISLYSLRESLALIAEQGLENSWRQHREAAAYLHGRLQALGLQLFVKDPALRLPTVTTVAVPAGYDWRDIVSYVMDHFDIEIMGGLGPSTGKVLRIGLLGCNATRENVDRVTEALRAALQHCPKKKL
notes: alanine:glyoxylate aminotransferase (AGT), human, PH1 mutation p.G170R in the minor allele (p.P11L, p.G170R and p.I340M in cis); source: E. coli BL21 (pCOLDII), purified (IMAC, SEC)
B7: alanine:glyoxylate aminotransferase p.P319L on the minor allele, recombinant His-tagged (enzyme, human, UniProt P21549 1-392, looked up)
chain: MASHKLLVTPLKALLKPLSIPNQLLLGPGPSNLPPRIMAAGGLQMIGSMSKDMYQIMDEIKEGIQYVFQTRNPLTLVISGSGHCALEAALVNVLEPGDSFLVGANGIWGQRAVDIGERIGARVHPMTKDPGGHYTLQEVEEGLAQHKPVLLFLTHGESSTGVLQPLDGFGELCHRYKCLLLVDSVASLGGTPLYMDRQGIDILYSGSQKALNAPPGTSLISFSDKAKKKMYSRKTKPFSFYLDIKWLANFWGCDDQPRMYHHTIPVISLYSLRESLALIAEQGLENSWRQHREAAAYLHGRLQALGLQLFVKDPALRLLTVTTVAVPAGYDWRDIVSYVMDHFDIEIMGGLGPSTGKVLRIGLLGCNATRENVDRVTEALRAALQHCPKKKL
notes: alanine:glyoxylate aminotransferase (AGT), human, PH1 mutation p.P319L in the minor allele; source: E. coli BL21 (pCOLDII), purified (IMAC, SEC)
B8: alanine:glyoxylate aminotransferase p.A368T on the minor allele, recombinant His-tagged (enzyme, human, UniProt P21549 1-392, looked up)
chain: MASHKLLVTPLKALLKPLSIPNQLLLGPGPSNLPPRIMAAGGLQMIGSMSKDMYQIMDEIKEGIQYVFQTRNPLTLVISGSGHCALEAALVNVLEPGDSFLVGANGIWGQRAVDIGERIGARVHPMTKDPGGHYTLQEVEEGLAQHKPVLLFLTHGESSTGVLQPLDGFGELCHRYKCLLLVDSVASLGGTPLYMDRQGIDILYSGSQKALNAPPGTSLISFSDKAKKKMYSRKTKPFSFYLDIKWLANFWGCDDQPRMYHHTIPVISLYSLRESLALIAEQGLENSWRQHREAAAYLHGRLQALGLQLFVKDPALRLPTVTTVAVPAGYDWRDIVSYVMDHFDIEIMGGLGPSTGKVLRIGLLGCNTTRENVDRVTEALRAALQHCPKKKL
notes: alanine:glyoxylate aminotransferase (AGT), human, PH1 mutation p.A368T in the minor allele; source: E. coli BL21 (pCOLDII), purified (IMAC, SEC)
B9: alanine:glyoxylate aminotransferase p.R197Q on the minor allele, recombinant His-tagged (enzyme, human, UniProt P21549 1-392, looked up)
chain: MASHKLLVTPLKALLKPLSIPNQLLLGPGPSNLPPRIMAAGGLQMIGSMSKDMYQIMDEIKEGIQYVFQTRNPLTLVISGSGHCALEAALVNVLEPGDSFLVGANGIWGQRAVDIGERIGARVHPMTKDPGGHYTLQEVEEGLAQHKPVLLFLTHGESSTGVLQPLDGFGELCHRYKCLLLVDSVASLGGTPLYMDQQGIDILYSGSQKALNAPPGTSLISFSDKAKKKMYSRKTKPFSFYLDIKWLANFWGCDDQPRMYHHTIPVISLYSLRESLALIAEQGLENSWRQHREAAAYLHGRLQALGLQLFVKDPALRLPTVTTVAVPAGYDWRDIVSYVMDHFDIEIMGGLGPSTGKVLRIGLLGCNATRENVDRVTEALRAALQHCPKKKL
notes: alanine:glyoxylate aminotransferase (AGT), human, rare variant p.R197Q in the minor allele; source: E. coli BL21 (pCOLDII), purified (IMAC, SEC)

One data set concerns the molecule itself. Briefly: SEC; purified recombinant AGT variants; single peak, elution volume of a ≈90 kDa dimer; data not shown.
One may read the stoichiometry N as the number of molecules, sites or subunits per partner or assembly. For the molecule B1, the “stoichiometry N” value was 2.

B2: the “stoichiometry N” value was determined as 2.

In the case of B3, the “stoichiometry N” value stood at 2.

As to B4, the “stoichiometry N” value came to 2.

As to B5, the “stoichiometry N” value came to 2.

In the case of B6, the “stoichiometry N” value amounted to 2.

In the case of B7, the “stoichiometry N” value stood at 2.

Turning to B8, the “stoichiometry N” value was 2.

As to B9, the “stoichiometry N” value was 2.

The target in the next data set is Hsc70 chaperones of the rabbit reticulocyte lysate (rabbit (endogenous in rabbit reticulocyte lysate)). Briefly: co-IP; AGT variants made with 35S-Met in rabbit reticulocyte lysate (TnT) at 30°C for 2 h, stopped with cycloheximide; immunoprecipitation with anti-Hsc70 antibodies; SDS-PAGE and fluorography.
Take “alanine:glyoxylate aminotransferase minor allele (p.P11L/I340M), made in a cell-free system (from UniProt P21549 1-392) (enzyme)”: the fold increase in immunoprecipitated AGT compared to WT was found to be 4 fold.

Turning to “alanine:glyoxylate aminotransferase p.H83R on the minor allele, made in a cell-free system (from UniProt P21549 1-392) (enzyme)”, the fold increase in immunoprecipitated AGT compared to WT was 4.8 fold.

Regarding “alanine:glyoxylate aminotransferase p.P319L on the minor allele, made in a cell-free system (from UniProt P21549 1-392) (enzyme)”, the fold increase in immunoprecipitated AGT compared to WT was 7 fold.
